Experimental data: the supplement of paper PMC10065799, “High-throughput profiling of sequence recognition by tyrosine kinases and SH2 domains using bacterial peptide display” (eLife, 2023)
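Note: 11-residue human phosphosite peptides and single-mutation variants displayed on the E. coli surface, counted by deep sequencing, each peptide's frequency after selection divided by its frequency in the unselected input library; frequency after pTyr selection over input frequency; kinase dosed for 20-30% of maximal phosphorylation in three min.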

What follows are sequences tested against EPHB1 (UniProt P54762) (assay: phosphorylation enrichment, bacterial display (enrichment ratio); higher = better substrate or ligand; peptides without Tyr show the background).
Sequence of EPHB1 (P54762 whole entry, looked up): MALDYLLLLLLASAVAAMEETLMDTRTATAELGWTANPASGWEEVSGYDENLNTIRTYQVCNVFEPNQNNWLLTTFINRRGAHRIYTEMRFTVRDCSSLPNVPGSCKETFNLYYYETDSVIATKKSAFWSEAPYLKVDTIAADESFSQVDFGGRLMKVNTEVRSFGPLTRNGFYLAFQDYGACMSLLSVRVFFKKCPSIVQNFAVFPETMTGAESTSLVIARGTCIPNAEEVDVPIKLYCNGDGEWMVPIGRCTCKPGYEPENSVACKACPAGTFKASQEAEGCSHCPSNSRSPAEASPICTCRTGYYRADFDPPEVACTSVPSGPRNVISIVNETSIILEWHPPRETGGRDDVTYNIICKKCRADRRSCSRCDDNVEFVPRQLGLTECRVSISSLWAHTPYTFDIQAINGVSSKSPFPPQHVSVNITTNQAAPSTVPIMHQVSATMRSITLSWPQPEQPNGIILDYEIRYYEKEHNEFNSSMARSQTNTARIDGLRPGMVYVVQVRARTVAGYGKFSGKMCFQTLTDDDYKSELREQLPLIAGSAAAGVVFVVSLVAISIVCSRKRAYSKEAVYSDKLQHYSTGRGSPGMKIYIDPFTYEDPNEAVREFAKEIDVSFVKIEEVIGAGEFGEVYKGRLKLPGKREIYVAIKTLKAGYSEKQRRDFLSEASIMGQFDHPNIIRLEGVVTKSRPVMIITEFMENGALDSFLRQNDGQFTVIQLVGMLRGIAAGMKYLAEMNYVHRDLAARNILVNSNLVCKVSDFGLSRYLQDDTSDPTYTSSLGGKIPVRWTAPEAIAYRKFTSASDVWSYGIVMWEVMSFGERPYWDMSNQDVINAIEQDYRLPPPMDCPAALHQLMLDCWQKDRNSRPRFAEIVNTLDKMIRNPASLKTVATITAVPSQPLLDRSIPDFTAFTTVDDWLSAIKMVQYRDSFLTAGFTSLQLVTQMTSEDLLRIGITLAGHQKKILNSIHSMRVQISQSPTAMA
SRGLAYPARPA [LEMD2_Y122] was tested, and the phosphorylation enrichment was 0.328.
LMIKEYLTKEL [BAG3_Y457_E455K] was tested, and the phosphorylation enrichment was 0.524.
HSGIYYKPESL [L2HGDH_Y103] was tested, and the phosphorylation enrichment was 6.97.
Sequence ELTSVYDSRAR [SENP1_Y349] has a phosphorylation enrichment of 0.35.
With CEDGNYSPEIS [PTDSS1_Y424_T423N] the phosphorylation enrichment was 0.612.
Work on YVPSFYHAFSG [ACTN4_Y265_S262P] yielded a phosphorylation enrichment of 2.09.
QRCFVYFFSFL [PTEN_Y176_R173C_YF] showed a phosphorylation enrichment of 1.13.
In the case of KKHIPYSEHKS [CSNK1G2_Y206_R207S], the phosphorylation enrichment is reported as 0.488.
For QISRDYGVLLE [PRDX3_Y172], the phosphorylation enrichment was 0.617.
With SAEKAYHEQFS [TUBA1A_Y282_L286F] the phosphorylation enrichment was 0.401.
TIAIRYSHSRR [ACOXL_Y260] was tested, and the phosphorylation enrichment was 0.363.
SLDLSYYTTSS [EMD_Y181_P183T] gave a phosphorylation enrichment of 0.596.
GTYEDYVEGLR [MYL6_Y89] was tested, and the phosphorylation enrichment was 1.31.
Sequence VFLARYGPAWR [CYP2D6_Y124] has a phosphorylation enrichment of 0.405.
Work on KKYPDYIQIAR [SGMS2_Y59_M64R] yielded a phosphorylation enrichment of 7.96.
With IYHLSYHHNCE [PDE6B_Y227_L228H] the phosphorylation enrichment was 0.703.
VAVVDYVEPSP [TXNRD2_Y70] was tested, and the phosphorylation enrichment was 0.561.
HPYNSYTYPRL [PAK5_Y316_S312P] showed a phosphorylation enrichment of 0.731.
EKQARYEIVEE [CDH5_Y223_V227E] gave a phosphorylation enrichment of 0.582.
With RASGIYFVPKG [APBB1IP_Y340_YF] the phosphorylation enrichment was 5.1.
YRVAGYKTQGG [TIA1_Y383_E384K] was tested, and the phosphorylation enrichment was 0.368.
ALEKTYNTYRS [B4GALNT2_Y538] was tested, and the phosphorylation enrichment was 0.336.
GKTQQYDCKWY [BCR_Y751] was tested, and the phosphorylation enrichment was 0.554.
For GLCSYYETSKM [MAGED2_Y449_R446C], the phosphorylation enrichment was 1.67.
ILGRFYERGSI [PAX5_Y73_T75R_YF] was tested, and the phosphorylation enrichment was 0.392.
GIADDYDKKKL [EIF1_Y54] showed a phosphorylation enrichment of 0.456.
For HQEPVYSVAFS [TBL1X_Y509], the phosphorylation enrichment was 25.8.
Sequence VTRLRYPVCFG [ITK_Y336] has a phosphorylation enrichment of 0.528.
QRIHNYYEHRY [HCN4_Y554_D553N] showed a phosphorylation enrichment of 2.91.

Each sequence was assayed on c-Src in the same assay as above.
Sequence SRGLAYPARPA [LEMD2_Y122] has a phosphorylation enrichment of 0.335.
Work on LMIKEYLTKEL [BAG3_Y457_E455K] yielded a phosphorylation enrichment of 0.353.
Work on HSGIYYKPESL [L2HGDH_Y103] yielded a phosphorylation enrichment of 3.78.
ELTSVYDSRAR [SENP1_Y349] was tested, and the phosphorylation enrichment was 1.03.
CEDGNYSPEIS [PTDSS1_Y424_T423N] showed a phosphorylation enrichment of 0.618.
For YVPSFYHAFSG [ACTN4_Y265_S262P], the phosphorylation enrichment was 2.17.
QRCFVYFFSFL [PTEN_Y176_R173C_YF] showed a phosphorylation enrichment of 1.48.
With KKHIPYSEHKS [CSNK1G2_Y206_R207S] the phosphorylation enrichment was 0.781.
QISRDYGVLLE [PRDX3_Y172] was tested, and the phosphorylation enrichment was 0.679.
Sequence SAEKAYHEQFS [TUBA1A_Y282_L286F] has a phosphorylation enrichment of 0.441.
For TIAIRYSHSRR [ACOXL_Y260], the phosphorylation enrichment was 0.691.
SLDLSYYTTSS [EMD_Y181_P183T] was tested, and the phosphorylation enrichment was 0.755.
In the case of GTYEDYVEGLR [MYL6_Y89], the phosphorylation enrichment is reported as 1.43.
Work on VFLARYGPAWR [CYP2D6_Y124] yielded a phosphorylation enrichment of 0.603.
For KKYPDYIQIAR [SGMS2_Y59_M64R], the phosphorylation enrichment was 0.47.
IYHLSYHHNCE [PDE6B_Y227_L228H] showed a phosphorylation enrichment of 2.29.
VAVVDYVEPSP [TXNRD2_Y70] gave a phosphorylation enrichment of 0.416.
In the case of HPYNSYTYPRL [PAK5_Y316_S312P], the phosphorylation enrichment is reported as 1.3.
EKQARYEIVEE [CDH5_Y223_V227E] showed a phosphorylation enrichment of 0.521.
RASGIYFVPKG [APBB1IP_Y340_YF] showed a phosphorylation enrichment of 4.75.
For YRVAGYKTQGG [TIA1_Y383_E384K], the phosphorylation enrichment was 0.435.
With ALEKTYNTYRS [B4GALNT2_Y538] the phosphorylation enrichment was 0.925.
With GKTQQYDCKWY [BCR_Y751] the phosphorylation enrichment was 0.55.
GLCSYYETSKM [MAGED2_Y449_R446C] showed a phosphorylation enrichment of 1.81.
With ILGRFYERGSI [PAX5_Y73_T75R_YF] the phosphorylation enrichment was 0.451.
Work on GIADDYDKKKL [EIF1_Y54] yielded a phosphorylation enrichment of 0.377.
With HQEPVYSVAFS [TBL1X_Y509] the phosphorylation enrichment was 9.13.
In the case of VTRLRYPVCFG [ITK_Y336], the phosphorylation enrichment is reported as 0.467.
For QRIHNYYEHRY [HCN4_Y554_D553N], the phosphorylation enrichment was 0.769.

What follows are sequences tested against EPHB2 (UniProt P29323) in the same assay as above.
Sequence of EPHB2 (P29323 whole entry, looked up): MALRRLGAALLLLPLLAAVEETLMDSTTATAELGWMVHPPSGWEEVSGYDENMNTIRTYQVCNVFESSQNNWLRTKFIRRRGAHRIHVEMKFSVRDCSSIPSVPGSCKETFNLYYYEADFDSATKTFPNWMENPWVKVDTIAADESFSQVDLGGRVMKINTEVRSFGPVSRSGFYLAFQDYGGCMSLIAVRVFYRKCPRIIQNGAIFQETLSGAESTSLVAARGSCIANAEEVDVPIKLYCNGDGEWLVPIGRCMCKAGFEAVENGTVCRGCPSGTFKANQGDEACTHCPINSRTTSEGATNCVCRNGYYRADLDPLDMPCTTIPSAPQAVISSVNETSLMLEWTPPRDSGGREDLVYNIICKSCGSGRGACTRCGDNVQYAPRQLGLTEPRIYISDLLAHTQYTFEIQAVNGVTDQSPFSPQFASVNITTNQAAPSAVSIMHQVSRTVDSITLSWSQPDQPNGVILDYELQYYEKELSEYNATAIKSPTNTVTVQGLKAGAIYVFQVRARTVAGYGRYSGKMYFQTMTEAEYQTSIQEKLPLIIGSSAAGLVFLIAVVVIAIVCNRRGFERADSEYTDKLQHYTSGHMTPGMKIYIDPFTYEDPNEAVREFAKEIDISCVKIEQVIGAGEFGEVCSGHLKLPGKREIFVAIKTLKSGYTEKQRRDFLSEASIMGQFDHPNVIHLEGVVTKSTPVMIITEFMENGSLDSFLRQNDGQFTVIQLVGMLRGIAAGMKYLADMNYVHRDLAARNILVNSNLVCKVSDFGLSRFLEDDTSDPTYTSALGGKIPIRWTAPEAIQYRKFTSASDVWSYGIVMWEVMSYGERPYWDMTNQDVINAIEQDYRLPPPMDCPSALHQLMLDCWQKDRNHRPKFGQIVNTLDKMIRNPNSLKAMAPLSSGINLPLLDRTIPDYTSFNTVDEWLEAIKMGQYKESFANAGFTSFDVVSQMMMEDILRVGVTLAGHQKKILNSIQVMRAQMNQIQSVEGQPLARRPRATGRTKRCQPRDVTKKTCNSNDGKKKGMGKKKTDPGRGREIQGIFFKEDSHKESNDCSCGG
For SRGLAYPARPA [LEMD2_Y122], the phosphorylation enrichment was 0.332.
For LMIKEYLTKEL [BAG3_Y457_E455K], the phosphorylation enrichment was 0.612.
For HSGIYYKPESL [L2HGDH_Y103], the phosphorylation enrichment was 6.24.
Sequence ELTSVYDSRAR [SENP1_Y349] has a phosphorylation enrichment of 0.507.
CEDGNYSPEIS [PTDSS1_Y424_T423N] gave a phosphorylation enrichment of 0.871.
Work on YVPSFYHAFSG [ACTN4_Y265_S262P] yielded a phosphorylation enrichment of 1.03.
Work on QRCFVYFFSFL [PTEN_Y176_R173C_YF] yielded a phosphorylation enrichment of 0.526.
Work on KKHIPYSEHKS [CSNK1G2_Y206_R207S] yielded a phosphorylation enrichment of 0.644.
QISRDYGVLLE [PRDX3_Y172] was tested, and the phosphorylation enrichment was 0.731.
SAEKAYHEQFS [TUBA1A_Y282_L286F] gave a phosphorylation enrichment of 0.393.
Work on TIAIRYSHSRR [ACOXL_Y260] yielded a phosphorylation enrichment of 0.622.
In the case of SLDLSYYTTSS [EMD_Y181_P183T], the phosphorylation enrichment is reported as 0.601.
For GTYEDYVEGLR [MYL6_Y89], the phosphorylation enrichment was 1.19.
In the case of VFLARYGPAWR [CYP2D6_Y124], the phosphorylation enrichment is reported as 0.598.
In the case of KKYPDYIQIAR [SGMS2_Y59_M64R], the phosphorylation enrichment is reported as 1.22.
IYHLSYHHNCE [PDE6B_Y227_L228H] gave a phosphorylation enrichment of 0.602.
With VAVVDYVEPSP [TXNRD2_Y70] the phosphorylation enrichment was 0.776.
HPYNSYTYPRL [PAK5_Y316_S312P] was tested, and the phosphorylation enrichment was 0.531.
EKQARYEIVEE [CDH5_Y223_V227E] showed a phosphorylation enrichment of 0.565.
Work on RASGIYFVPKG [APBB1IP_Y340_YF] yielded a phosphorylation enrichment of 2.37.
YRVAGYKTQGG [TIA1_Y383_E384K] gave a phosphorylation enrichment of 0.309.
ALEKTYNTYRS [B4GALNT2_Y538] was tested, and the phosphorylation enrichment was 0.349.
Work on GKTQQYDCKWY [BCR_Y751] yielded a phosphorylation enrichment of 0.532.
With GLCSYYETSKM [MAGED2_Y449_R446C] the phosphorylation enrichment was 1.11.
For ILGRFYERGSI [PAX5_Y73_T75R_YF], the phosphorylation enrichment was 0.476.
GIADDYDKKKL [EIF1_Y54] showed a phosphorylation enrichment of 0.565.
HQEPVYSVAFS [TBL1X_Y509] was tested, and the phosphorylation enrichment was 31.1.
For VTRLRYPVCFG [ITK_Y336], the phosphorylation enrichment was 0.543.
QRIHNYYEHRY [HCN4_Y554_D553N] showed a phosphorylation enrichment of 2.88.

What follows are sequences tested against Fyn (UniProt P06241) in the same assay as above.
Sequence of Fyn (P06241 whole entry, looked up): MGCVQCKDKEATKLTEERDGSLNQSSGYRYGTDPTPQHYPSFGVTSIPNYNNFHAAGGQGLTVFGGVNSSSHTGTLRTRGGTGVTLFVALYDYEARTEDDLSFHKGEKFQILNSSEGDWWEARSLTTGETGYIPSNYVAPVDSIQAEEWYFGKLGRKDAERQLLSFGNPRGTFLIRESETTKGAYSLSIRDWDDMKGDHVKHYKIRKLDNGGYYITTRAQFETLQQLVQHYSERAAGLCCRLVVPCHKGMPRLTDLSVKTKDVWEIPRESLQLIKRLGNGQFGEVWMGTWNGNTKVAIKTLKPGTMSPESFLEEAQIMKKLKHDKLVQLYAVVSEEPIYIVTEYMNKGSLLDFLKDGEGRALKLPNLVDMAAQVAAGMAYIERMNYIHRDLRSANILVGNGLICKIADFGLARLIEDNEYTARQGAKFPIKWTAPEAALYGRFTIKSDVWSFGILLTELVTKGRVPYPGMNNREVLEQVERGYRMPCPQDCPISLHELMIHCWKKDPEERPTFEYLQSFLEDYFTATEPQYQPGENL
For SRGLAYPARPA [LEMD2_Y122], the phosphorylation enrichment was 0.331.
With LMIKEYLTKEL [BAG3_Y457_E455K] the phosphorylation enrichment was 0.469.
HSGIYYKPESL [L2HGDH_Y103] was tested, and the phosphorylation enrichment was 4.78.
Work on ELTSVYDSRAR [SENP1_Y349] yielded a phosphorylation enrichment of 0.697.
Work on CEDGNYSPEIS [PTDSS1_Y424_T423N] yielded a phosphorylation enrichment of 0.458.
Sequence YVPSFYHAFSG [ACTN4_Y265_S262P] has a phosphorylation enrichment of 1.82.
Work on QRCFVYFFSFL [PTEN_Y176_R173C_YF] yielded a phosphorylation enrichment of 1.47.
With KKHIPYSEHKS [CSNK1G2_Y206_R207S] the phosphorylation enrichment was 0.374.
Sequence QISRDYGVLLE [PRDX3_Y172] has a phosphorylation enrichment of 0.624.
SAEKAYHEQFS [TUBA1A_Y282_L286F] gave a phosphorylation enrichment of 0.519.
Sequence TIAIRYSHSRR [ACOXL_Y260] has a phosphorylation enrichment of 0.644.
With SLDLSYYTTSS [EMD_Y181_P183T] the phosphorylation enrichment was 0.53.
GTYEDYVEGLR [MYL6_Y89] showed a phosphorylation enrichment of 1.14.
VFLARYGPAWR [CYP2D6_Y124] was tested, and the phosphorylation enrichment was 0.434.
KKYPDYIQIAR [SGMS2_Y59_M64R] was tested, and the phosphorylation enrichment was 0.367.
IYHLSYHHNCE [PDE6B_Y227_L228H] showed a phosphorylation enrichment of 2.15.
Sequence VAVVDYVEPSP [TXNRD2_Y70] has a phosphorylation enrichment of 0.53.
Work on HPYNSYTYPRL [PAK5_Y316_S312P] yielded a phosphorylation enrichment of 0.968.
Work on EKQARYEIVEE [CDH5_Y223_V227E] yielded a phosphorylation enrichment of 0.542.
Work on RASGIYFVPKG [APBB1IP_Y340_YF] yielded a phosphorylation enrichment of 6.15.
With YRVAGYKTQGG [TIA1_Y383_E384K] the phosphorylation enrichment was 0.494.
In the case of ALEKTYNTYRS [B4GALNT2_Y538], the phosphorylation enrichment is reported as 0.517.
In the case of GKTQQYDCKWY [BCR_Y751], the phosphorylation enrichment is reported as 0.441.
GLCSYYETSKM [MAGED2_Y449_R446C] showed a phosphorylation enrichment of 0.68.
Sequence ILGRFYERGSI [PAX5_Y73_T75R_YF] has a phosphorylation enrichment of 0.483.
In the case of GIADDYDKKKL [EIF1_Y54], the phosphorylation enrichment is reported as 0.467.
Sequence HQEPVYSVAFS [TBL1X_Y509] has a phosphorylation enrichment of 15.6.
For VTRLRYPVCFG [ITK_Y336], the phosphorylation enrichment was 0.453.
QRIHNYYEHRY [HCN4_Y554_D553N] showed a phosphorylation enrichment of 0.68.
